Our source for the abundance fitness values is the Human Domainome abundance scans (Beltran et al. 2025).

Sequences and labels used below:
B1: Storkhead-box protein 2, residues 64 to 141; numbered along this chain, Q9P2F5 (parent)
chain: SPISQSQFIPLGEILCLAISAMNSARKPVTQEALMEHLTTCFPGVPTPSQEILRHTLNTLVRERKIYPTPDGYFIVTP

± gives the uncertainty stated by the source.

Variants of B1 are the subject of the data set. Nature of the data set: abundance fitness (aPCA) (normalised: wild type 0, dead -1); higher = more abundant; growth selection in yeast, the domain comes from the species named. To be noted: Homo sapiens.
In the case of SPISQSQFIPLGEMLCLAISAMNSARKPVTQEALMEHLTTCFPGVPTPSQEILRHTLNTLVRERKIYPTPDGYFIVTP [I14M], the abundance fitness turned out to be 0.024 ± 0.15.

For SPISQSQFIPLGEGLCLAISAMNSARKPVTQEALMEHLTTCFPGVPTPSQEILRHTLNTLVRERKIYPTPDGYFIVTP [I14G], the abundance fitness is -0.097 ± 0.059.

With SPISQSQFIPLGESLCLAISAMNSARKPVTQEALMEHLTTCFPGVPTPSQEILRHTLNTLVRERKIYPTPDGYFIVTP [I14S], the abundance fitness came out at 0.01 ± 0.057.

For the variant SPISQSQFIPLGEPLCLAISAMNSARKPVTQEALMEHLTTCFPGVPTPSQEILRHTLNTLVRERKIYPTPDGYFIVTP [I14P], the abundance fitness was -0.032 ± 0.085.

Regarding SPISQSQFIPLGECLCLAISAMNSARKPVTQEALMEHLTTCFPGVPTPSQEILRHTLNTLVRERKIYPTPDGYFIVTP [I14C], the abundance fitness is -0.109 ± 0.17.

As to SPISQSQFIPLGEWLCLAISAMNSARKPVTQEALMEHLTTCFPGVPTPSQEILRHTLNTLVRERKIYPTPDGYFIVTP [I14W], the abundance fitness is -0.105 ± 0.079.

On to SPISQSQFIPLGEFLCLAISAMNSARKPVTQEALMEHLTTCFPGVPTPSQEILRHTLNTLVRERKIYPTPDGYFIVTP [I14F], for which the abundance fitness is -0.228 ± 0.092.

SPISQSQFIPLGEELCLAISAMNSARKPVTQEALMEHLTTCFPGVPTPSQEILRHTLNTLVRERKIYPTPDGYFIVTP [I14E]: the abundance fitness was -0.089 ± 0.11.

As to SPISQSQFIPLGEALCLAISAMNSARKPVTQEALMEHLTTCFPGVPTPSQEILRHTLNTLVRERKIYPTPDGYFIVTP [I14A], the abundance fitness was -0.003 ± 0.057.

Take SPISQSQFIPLGEYLCLAISAMNSARKPVTQEALMEHLTTCFPGVPTPSQEILRHTLNTLVRERKIYPTPDGYFIVTP [I14Y]: the abundance fitness is -0.108 ± 0.14.

As to SPISQSQFIPLGETLCLAISAMNSARKPVTQEALMEHLTTCFPGVPTPSQEILRHTLNTLVRERKIYPTPDGYFIVTP [I14T], the abundance fitness is -0.034 ± 0.063.

Consider SPISQSQFIPLGEQLCLAISAMNSARKPVTQEALMEHLTTCFPGVPTPSQEILRHTLNTLVRERKIYPTPDGYFIVTP [I14Q], for which the abundance fitness was -0.118 ± 0.13.

As to SPISQSQFIPLGERLCLAISAMNSARKPVTQEALMEHLTTCFPGVPTPSQEILRHTLNTLVRERKIYPTPDGYFIVTP [I14R], the abundance fitness is -0.073 ± 0.059.

As to SPISQSQFIPLGEKLCLAISAMNSARKPVTQEALMEHLTTCFPGVPTPSQEILRHTLNTLVRERKIYPTPDGYFIVTP [I14K], the abundance fitness was -0.039 ± 0.2.

As for SPISQSQFIPLGEILCDAISAMNSARKPVTQEALMEHLTTCFPGVPTPSQEILRHTLNTLVRERKIYPTPDGYFIVTP [L17D], the abundance fitness is -0.069 ± 0.081.

As for SPISQSQFIPLGEILCAAISAMNSARKPVTQEALMEHLTTCFPGVPTPSQEILRHTLNTLVRERKIYPTPDGYFIVTP [L17A], the abundance fitness turned out to be 0.005 ± 0.04.

With SPISQSQFIPLGEILCCAISAMNSARKPVTQEALMEHLTTCFPGVPTPSQEILRHTLNTLVRERKIYPTPDGYFIVTP [L17C], the abundance fitness was -0.116 ± 0.074.

Take SPISQSQFIPLGEILQLAISAMNSARKPVTQEALMEHLTTCFPGVPTPSQEILRHTLNTLVRERKIYPTPDGYFIVTP [C16Q]: the abundance fitness was 0.072 ± 0.19.

As to SPISQSQFIPLGEILYLAISAMNSARKPVTQEALMEHLTTCFPGVPTPSQEILRHTLNTLVRERKIYPTPDGYFIVTP [C16Y], the abundance fitness is -0.021 ± 0.079.

As for SPISQSQFIPLGEILPLAISAMNSARKPVTQEALMEHLTTCFPGVPTPSQEILRHTLNTLVRERKIYPTPDGYFIVTP [C16P], the abundance fitness is -0.124 ± 0.098.

On to SPISQSQFIPLGEILNLAISAMNSARKPVTQEALMEHLTTCFPGVPTPSQEILRHTLNTLVRERKIYPTPDGYFIVTP [C16N], for which the abundance fitness was -0.08 ± 0.13.

With SPISQSQFIPLGEILELAISAMNSARKPVTQEALMEHLTTCFPGVPTPSQEILRHTLNTLVRERKIYPTPDGYFIVTP [C16E], the abundance fitness is -0.148 ± 0.087.

For the variant SPISQSQFIPLGEILSLAISAMNSARKPVTQEALMEHLTTCFPGVPTPSQEILRHTLNTLVRERKIYPTPDGYFIVTP [C16S], the abundance fitness is -0.091 ± 0.06.

As to SPISQSQFIPLGEILKLAISAMNSARKPVTQEALMEHLTTCFPGVPTPSQEILRHTLNTLVRERKIYPTPDGYFIVTP [C16K], the abundance fitness was -0.155 ± 0.12.

In the case of SPISQSQFIPLGEILGLAISAMNSARKPVTQEALMEHLTTCFPGVPTPSQEILRHTLNTLVRERKIYPTPDGYFIVTP [C16G], the abundance fitness was -0.249 ± 0.033.

On to SPISQSQFIPLGEILLLAISAMNSARKPVTQEALMEHLTTCFPGVPTPSQEILRHTLNTLVRERKIYPTPDGYFIVTP [C16L], for which the abundance fitness is -0.019 ± 0.041.

Turning to SPISQSQFIPLGEILFLAISAMNSARKPVTQEALMEHLTTCFPGVPTPSQEILRHTLNTLVRERKIYPTPDGYFIVTP [C16F], the abundance fitness was -0.074 ± 0.11.

For the variant SPISQSQFIPLGEILVLAISAMNSARKPVTQEALMEHLTTCFPGVPTPSQEILRHTLNTLVRERKIYPTPDGYFIVTP [C16V], the abundance fitness was -0.074 ± 0.051.

Take SPISQSQFIPLGEILRLAISAMNSARKPVTQEALMEHLTTCFPGVPTPSQEILRHTLNTLVRERKIYPTPDGYFIVTP [C16R]: the abundance fitness is -0.061 ± 0.051.

SPISQSQFIPLGEILTLAISAMNSARKPVTQEALMEHLTTCFPGVPTPSQEILRHTLNTLVRERKIYPTPDGYFIVTP [C16T]: the abundance fitness is -0.027 ± 0.097.

For SPISQSQFIPLGEILWLAISAMNSARKPVTQEALMEHLTTCFPGVPTPSQEILRHTLNTLVRERKIYPTPDGYFIVTP [C16W], the abundance fitness was -0.052 ± 0.076.

In the case of SPISQSQFIPLGEILDLAISAMNSARKPVTQEALMEHLTTCFPGVPTPSQEILRHTLNTLVRERKIYPTPDGYFIVTP [C16D], the abundance fitness was -0.353 ± 0.084.

SPISQSQFIPLGEILALAISAMNSARKPVTQEALMEHLTTCFPGVPTPSQEILRHTLNTLVRERKIYPTPDGYFIVTP [C16A]: the abundance fitness is -0.197 ± 0.069.

Take SPISQSQFIPLGEILILAISAMNSARKPVTQEALMEHLTTCFPGVPTPSQEILRHTLNTLVRERKIYPTPDGYFIVTP [C16I]: the abundance fitness is -0.01 ± 0.1.

Consider SPISQSQFIPLGEILMLAISAMNSARKPVTQEALMEHLTTCFPGVPTPSQEILRHTLNTLVRERKIYPTPDGYFIVTP [C16M], for which the abundance fitness is -0.04 ± 0.088.
